Target: T1, anm10_arath PRMT10 (UniProt Q9MAT5)
T1 sequence: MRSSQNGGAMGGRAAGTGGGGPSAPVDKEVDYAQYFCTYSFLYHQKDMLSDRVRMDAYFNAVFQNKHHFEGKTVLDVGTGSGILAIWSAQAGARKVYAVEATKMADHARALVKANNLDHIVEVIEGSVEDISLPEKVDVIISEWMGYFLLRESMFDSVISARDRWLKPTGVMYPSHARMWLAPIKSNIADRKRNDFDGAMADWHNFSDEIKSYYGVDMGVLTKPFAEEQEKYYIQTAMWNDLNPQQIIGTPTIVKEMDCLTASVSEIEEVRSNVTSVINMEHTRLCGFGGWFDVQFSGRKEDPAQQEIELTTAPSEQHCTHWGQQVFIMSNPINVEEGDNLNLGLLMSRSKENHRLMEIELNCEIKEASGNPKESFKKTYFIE

With “Histone H4 (Bos taurus (Bovine)) (from UniProt P62803) R4L” the “effect of a mutation on the interaction” value was “decreasing interaction”.

Source: IntAct's records for PubMed 18007657
